B1: [3H]-α-bungarotoxin (natural protein)
chain: IVCHTTATSPISAVTCPPGENLCYRKMWCDAFCSSRGKVVELGCAATCPSKKPYEEVTCCSTDKCNPHPKQRPG

How the values were obtained:
[1] = biological target: human nicotinic acetylcholine receptor α7 subunit with a three amino acid (IIC) deletion in TM4 (human) (UniProt P36544); test: radioligand binding
[2] = biological target: T1, human nicotinic acetylcholine receptor α7 subunit, wild type (human, UniProt P36544 23-502); test: radioligand binding; details: one partner purified
T1 construct: also called Hα7; human α7 nAChR

Row | Molecule | EC50 [1] [nM] | EC50 [2] [nM]
1 | [3H]-α-bungarotoxin (from UniProt P60615 22-95) (natural protein) | 0.9 | 
2 | B1 |  | 20 ± 5.8

From PMC4821178 (Insect Biochemistry and Molecular Biology, 2016)
